Data from the nanobody polyreactivity screen of Harvey et al. (2022).

Assay: yeast display, Sf9 membrane polyspecificity reagent, FACS + sequencing; frameworks hold sequencing errors
Procedure, shortened: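 A nanobody's polyreactivity label depends on the gate it was sorted from. Yeast display cells were stained with 10% biotinylated, detergent-solubilized Sf9 membrane reagent for 1 hour at 4 °C, enriched on streptavidin microbeads and sorted by FACS. The low and high (top ~1%) gates were set on anti-HA fluorescence for expression and streptavidin fluorescence for reagent binding.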

Sequence	polyreactivity (PSR sort gate)
QVQLVESGGGLVQAGGSLRLSCAASGSIFVGYAMGWYRQAPGKERDLVAAIDSTVSTYYADSVKGRFTISRDNAKNTVYLQMNSLKPEDTAVYYCAAYPRPDIGYTDGYVWYEFDYWGQGTQVTVSS	low polyreactivity
QVQLVESGGGLLQAGGSLRLSCAASGRTLVSYAMGWYRQAPGKERELVATISWSGGSTYYADSVKGRFTISRDTAKNTVYLQIYSLKPEDTAGYDCNRSLTGYDELGYPVPYTYDYWGQGTQVTVSS	low polyreactivity
QVQLVESGGGLVQAGDSLRLSCAASGRIFKRNTMGWYRQAPGKERELVAAITRSGGSTYYADSVKGRFTISRDNAMNNVYLQMNSLKPEDTAVYYCNAPQYIGSVPIGDYWGLGTQVTVSS	high polyreactivity
QVQLVESGGGLVQAGGSLRLSCAASGSSFGYNAMGWYRQAPGKERELVAAISRSGSTYYADSVKGRFTISRDKAKNTVYLHMNSLKPEDTAVYYCDARLWWTFCEYDYWGQGTQVTVSS	high polyreactivity
QVQLVESGGGLVQAGGSLRLSCAASVFTLWLNAMGWYRQAPGKERELVAAITTSDDGTYYADSVKGRFTISRDNAKNTVYLQMNSLKPEDTAVYYCAADYYSVLYDYWGQGTQVTVSS	low polyreactivity
QVQLQESGGGLVQAGGDLRLSCAASGNIFRDYIMGWYRQAPRKEREFVAGIDRGANTNYADSVKGRFTISRDNAKNTVYLLLNSLKPEDTAVYYCAVHTAIVPDFIYWGQGTQVTVSS	low polyreactivity
QVKLVESGGGLVQAGGSLRLSCAASGSIFLVKVMGWYRQAPGKERELVAAITWSGGRTYYADSVKGRFTISRDNAKNTVYLQMIILKPEDTAVYYCAAEGWLLNGDSWGQGTQVTVSS	high polyreactivity
QVQLVESGGGLVQAGGSLRLSCAASGRIFVYYAMGWNRQAPGKERELVAAISSSGGSTYYADSVKGRFTISRDNAKNTVYLQMNSLKPEDTAVYYCNAVTSVQARPRNYYYWGQGTQVTVSS	high polyreactivity
QVQLVESGGGLVQAGGSLRLSCAASGSIFLYNAMGWYRQAPGKERELVAAISASGGSTYYADSVKGRFTISRDNAKNTVYLQMNSLKPEDTAVYYCAAQYSDYDGFTWPLPPRYDYWGQGTQVTVSS	high polyreactivity
QVQLVESGGGLVQAGGSLRLSCAASGRIFYGNAMGWYRQAPGKERELVAAITRGVSTYYADSVKGRFTISRDNAKNTVYLQMNSLKPEDTAVYYCAKDRRVRMDSWGQGTQVTVSS	low polyreactivity
QVQLVESGGGLVQAGGSLRLSCAASGRIFYHNAMGWYRQAPGKERELVAVISWSGTRTYYADSVKGRFTISRDNAKNTVYLQMNSLKPEDTAVYYFNVEPYYTSYWIYPYIYTYDYWGQGTQVTVSS	high polyreactivity
QVKLVESAAGLVQPGGSHRLSCAASGRIFSYYAMGWSRQAPGKDRELVAAISRTGGTTYYADSVKGRFTSSRDNAKNTVYLQMNSLKPEDTAVYYCNAVKAPYLSYDYWGKGTQVTVSS	high polyreactivity
QVQLVESGGGLVQAGGSLRLSCAASGRTFIGNALGWYRQAPGKERELVASITRSGGSTYYADSVKGRFTISRDNAKNTVYLQMNSLKPEDTAVYYCAARVYTYYYDLHKRYYWGQGTQVTVSS	high polyreactivity
QGQLVESGGGLVQAGGSLRLSCAASGSIFYRNAMGWYRQAPGKERELVAAISYSGGSTYYADSVKGRFTISRDNAKNTVYLQMNSLKPEDTAVYYCAKDYPTPISDYSRYYGYGYWGQGTQVTVSS	low polyreactivity
QVQLVESGGGVVQAGGSLRLSCAASGLIFAYAMGWYSPAPGKERELVAVISWSGGSTYYADSVKGRFTISRDNAKNTVYLQMNSLKPEDTAVYYCAADYFGNWQLAGGYWGQGTQVTVSS	low polyreactivity
QVQLEESGGGLVQAGGSLRLSCAASGLIFGKYAMGWYRTAPGKERELVAAITSSGGGTYYADSVKGRFTISRDNAKNTVYLQMNSLKPEDTAVYYCSTGPDPKYDYWGQGTQVTVSS	high polyreactivity
QVQLVESGGGLVQAGGSLRLSCAASGSTLGWYVMGWYRQAPGKERELVAAISKSGGRTYYADSVKGRFTISRDNAKNTVYLQMNSLKPEDTAVYYCAAYPPSDFYYEHDYWGQGTQVSVSS	high polyreactivity
QVQLVESGGGLVQAGGSLRLSCAASVRISVFNAMGWYRKPPGKESELVAGISNGGSTNYADSVKGRFTISRDNAKNTVYLQMNSLKPEDTAVYYCANDEPKVCRAFDYWGQGTQVTVSS	low polyreactivity
QVQLVESGGGLVQAGGSLRLSCAASGSIFTVNAMGWYRQAPGKERELVAAITFGGGRTYYADSVKGRFTISRDNAKNTVYLQMNSLKPEDTSVYYCAVSRKGLGSVEYWGQGTQVTVSS	low polyreactivity
QVQLVESGGGLVQAGGSLRLSCAASGITFVANAMGWYRQAPGKERELVAGITQTGGSTYYADSVKGRFTISRDNAKNTVYLQMNSLKPEDTAVYYCAATYRRLRYGKLLYYWGQGTQVTVSS	high polyreactivity
QVQLVESGGGLVQAGGSLRLSCAASGSTFWYYAMGWYRQAPGKESELVAGITQSGGSTYYADSVKGRFTISRDNAKNTVYLQMNSLKPEDTAVYYCAKDGRVSGDFDYWGQGTQVTVSS	low polyreactivity
QVQLVESGGGLVQAGGSLRLSCAASGSTFPKYAMGWYRPAPGKERELVAAITSRGSTYADSVKGRFTISRDNAKNTVYLPMNSLKPVDTAVYYCAKDSRYASRDYWGQGTQVTVSS	high polyreactivity
QVQLVESGGGLVQAGGSLRLSCAASGFIFRRYAMGWYRQAPGKERELVAAISGRGASTYYGDSVKGRFTISRDNAKNNVYVQMNSLKPEDTAAYYCNAVPDNLNYDYWGQGTQVTVSS	high polyreactivity
QVQLVESGGGLVQAGGSLRLSCAASGLIFDSYVMGWYRQAPGKERELVAVISGSGGSTYYADSVKGRFTISRDNAKNTVYLQMNSLKPEDTAVYYCAAQYSAGQYYGYGYWGQGTQVTVSS	high polyreactivity
QVQLVESGGGLVQAGGSLRLSCAASGRTFGKYTMGWYRQAPGKQRELFAAINRRGGSTYYADSVKGRFTISRDNANNTVYLQMNSLKPEDTAVYYCSTDGYSIDRYYWGQGTQVTESS	high polyreactivity
QVQLVESGGGLVQAGGSLRLSCAASGSIFYSNAMGWYRQAPGKERELVAAIHWSGGSTYYADSVKGRFTISRDNAKNTFYLLMNSLKPEDTAVYYCAADYGWGPIYDYWGQGTQVNVSS	low polyreactivity
QVQLVESGGGLVQAGGSLRLSCADSGRIYGIYAMGWYRQAPGKERELVAAITNIGGRTYYADSVKGRFTISRDNAKNTVYLQMNSLKPEDTAVYYCAKRWRRRFVDVWSLYDYWGQGTQVTVSS	low polyreactivity
QVQLVESGGCLVQAGGSLRLICAASGNTFYVYAMGWYRQAPGKERELVAAITWSGGSTNYADSVKGRYTISRDNAKNTVYLQMNSLKPEDSAVYYCKADYWTFSPYDYWGQGTQVTVSS	low polyreactivity
QVQLVESGGGLVQAGGSLRLSCAASGSTIPLYAMGWYRQAPGKERELVAAISRSGGRTYYADSVKGRFTISRDNAKNTVYLQMNSLKPEDTAVYYCDSAQGSRVDYWGQGTQVTVSS	high polyreactivity
QVQLLETVGGLVQAGGSLRLSCASSGFTFGYYTMGWYRQAPGKERELVAAISSSGGRTYYADSVKGRFTISRDIAKNTVYLQMISLKPEDTALYYCNVYYISTDLYYWGQGTQVTVSS	high polyreactivity
